Measurements from patent US6953577B2, “Human methionine aminopeptidase type 3” (Pharmacia Corporation, priority 1999, dated 2005).

B1: recombinant human MetAP-2 (Homo sapiens) (protein)
chain: MAGVEEVAASGSHLNGDLDPDDREEGAASTAEEAAKKKRRKKKKSKGPSAAGEQEPDKESGASVDEVARQLERSALEDKERDEDDEDGDGDGDGATGKKKKKKKKKRGPKVQTDPPSVPICDLYPNGVFPKGQECEYPPTQDGRTAAWRTTSEEKKALDQASEEIWNDFREAAEAHRQVRKYVMSWIKPGMTMIEICEKLEDCSRKLIKENGLNAGLAFPTGCSLNNCAAHYTPNAGDTTVLQYDDICKIDFGTHISGRIIDCAFTVTFNPKYDTLLKAVKDATNTGIKCAGIDVRLCDVGEAIQEVMESYEVEIDGKTYQVKPIRNLNGHSIGQYRIHAGKTVPIVKGGEATRMEEGEVYAIETFGSTGKGVVHDDMECSHYMKNFDVGHVPIRLPRTKHLLNVINENFGTLAFCRRWLDRLGESKYLMALKNLCDLGIVDPYPPLCDIKGSYTAQFEHTILLRPTCKEVVSRGDDY
B2: recombinant human MetAP-3 (Homo sapiens) (protein)
chain: SSPLNHIYLHKQSSSQQRRNFFFRRQRDISHSIVLPAAVSSAHPVPKHIKKPDYVTTGIVPDWGDSIEVKNEDQIQGLHQACQLARHVLLLAGKSLKVDMTTEEIDALVHREIISHNAYPSPLGYGGFPKSVCTSVNNVLCHGIPDSRPLQDGDIINIDVTVYYNGYHGDTSETFLVGNVDECGKKLVEVARRCRDEAIAACRAGAPFSVIGNTISHITHQNGFQVCPHFVGHGIGSYFHGHPEIWHHANDSDLPMEEGMAFTIEPIITEGSPEFKVLEDAWTVVSLDNQRSAQFEHTVLITSRGAQILTKLPHEA
notes: The coding region of hMetAP-3 was also cloned into the EcoRI/HindIII sites of the pET43a vector and expressed as a fusion protein; NusA (N, cleaved yes); 6xHis (N, cleaved yes); made in house; host or cells: E. coli Tuner (DE3)plysS, pET43a

How the values were obtained:
[1] = substrate: CSCC[C@H](N)C(=O)N[C@@H](C)C(=O)N[C@@H](CO)C(=O)O; assay: purified protein, by the assay type; conditions: other: hydrolysis of methionine from MAS peptide substrate; pH 7.5
Method: (§1) Hydrogen peroxide, produced by the L-amino acid oxidase reaction, was measured by monitoring the formation of resorufin from Amplex Red in a reaction catalyzed by of horseradish peroxidase. […] The reaction was performed in a 96-well plate format at ambient temperature using the following assay buffer: 20 mM HEPES-Na pH 7.5, 100 mM NaCl, 0.1 mM CoCl2 containing 100 μM Amplex Red, 0.15 U/ml L-amino acid oxidase, 0.5 U/ml horseradish peroxidase.
(§2) The IC50 values were determined under conditions in which enzyme concentration and reaction time were linear.

[2] = substrate: CSCC[C@H](N)C(=O)N[C@@H](C)C(=O)N[C@@H](CO)C(=O)O; assay: Methionine aminopeptidase activity assay (methionine release from tripeptide, coupled L-amino acid oxidase/Amplex Red); assay type: biochemical, human; conditions: other: hydrolysis of methionine from MAS peptide substrate; pH 7.5
Method: as §1, §2

| Protein | Km [1] | kcat [1] | Km [2] | kcat [2] |
| --- | --- | --- | --- | --- |
| B1 | 300 µM | 2.3 s⁻¹ |  |  |
| B2 |  |  | 600 µM | 0.06 s⁻¹ |
